Assays:
[1] = target: T1, Arabidopsis thaliana NPL4 (Arabidopsis thaliana, UniProt O82264 1-413, Alexa-488 dye label in the MST experiments only); assay: MST; Alexa-488-labelled AtNPL4 (50 nM dye solution mixed 1:1), AtUFD1A or AtUFD1B titrated in 16 dilutions; pH 7.5 (50 mM Tris-HCl, 100 mM NaCl, 1 mM TCEP), Tween-20; settings: both partners purified
T1 construct: Nuclear protein localisation protein 4 (AtNPL4), Arabidopsis thaliana, locus AT2g47970; cDNA cloned into pGEX6P-1; also called AtNPL4; wild-type AtNPL4; not shown: GST, N-terminal, cleaved
T1 sequence: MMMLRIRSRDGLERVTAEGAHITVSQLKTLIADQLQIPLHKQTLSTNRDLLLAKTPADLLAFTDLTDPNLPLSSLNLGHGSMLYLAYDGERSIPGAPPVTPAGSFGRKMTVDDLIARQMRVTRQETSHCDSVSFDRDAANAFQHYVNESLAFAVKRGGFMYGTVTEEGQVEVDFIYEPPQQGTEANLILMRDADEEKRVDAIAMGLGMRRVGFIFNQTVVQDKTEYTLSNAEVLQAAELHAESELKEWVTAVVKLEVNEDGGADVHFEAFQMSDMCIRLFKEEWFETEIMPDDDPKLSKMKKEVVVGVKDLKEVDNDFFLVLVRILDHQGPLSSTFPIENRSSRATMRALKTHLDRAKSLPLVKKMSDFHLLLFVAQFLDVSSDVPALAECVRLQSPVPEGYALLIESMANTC

[2] = target: T2, Arabidopsis thaliana CDC48A (Arabidopsis thaliana, UniProt P54609 1-809); assay: ITC; AtCDC48A in the cell (30 µM; 10 µM for AtNPL4B UBXL), partner 200 µM in the syringe; 2 mM AMPPNP; 50 mM Bis-Tris pH 6.5, 100 mM NaCl, 1 mM TCEP, 2 mM MgCl2; 25°C; settings: both partners purified
T2 construct: Cell division cycle protein 48 A (AtCDC48A), Arabidopsis thaliana, locus AT3g09840; recombinant full-length protein; Homo-hexamer; ADP-saturated or nucleotide-free in some experiments (told by the assay); also called AtCDC48A; AtCDC48; not shown: GST, N-terminal, cleaved
T2 sequence (P54609 whole entry): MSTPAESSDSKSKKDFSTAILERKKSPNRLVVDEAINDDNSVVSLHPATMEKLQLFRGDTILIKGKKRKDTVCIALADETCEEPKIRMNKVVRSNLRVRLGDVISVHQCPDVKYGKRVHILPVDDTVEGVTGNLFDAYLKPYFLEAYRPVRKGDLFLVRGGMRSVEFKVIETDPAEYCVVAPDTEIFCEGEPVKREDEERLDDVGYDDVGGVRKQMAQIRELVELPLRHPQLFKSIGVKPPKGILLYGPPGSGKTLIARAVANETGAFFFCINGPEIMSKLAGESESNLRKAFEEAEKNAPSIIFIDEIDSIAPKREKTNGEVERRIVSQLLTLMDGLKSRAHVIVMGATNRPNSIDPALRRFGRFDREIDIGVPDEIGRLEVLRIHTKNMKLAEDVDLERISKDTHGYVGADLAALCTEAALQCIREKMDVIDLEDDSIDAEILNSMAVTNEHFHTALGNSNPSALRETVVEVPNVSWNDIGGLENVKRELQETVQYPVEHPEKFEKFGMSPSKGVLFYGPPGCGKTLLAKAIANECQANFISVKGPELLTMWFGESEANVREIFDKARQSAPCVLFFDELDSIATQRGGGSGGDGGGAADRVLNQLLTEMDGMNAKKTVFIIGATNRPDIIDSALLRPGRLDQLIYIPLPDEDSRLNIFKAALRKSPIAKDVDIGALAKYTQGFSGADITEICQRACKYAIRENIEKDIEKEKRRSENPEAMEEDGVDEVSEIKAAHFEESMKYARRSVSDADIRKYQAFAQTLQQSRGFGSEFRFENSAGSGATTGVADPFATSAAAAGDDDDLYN

B1: Arabidopsis thaliana UFD1B (natural protein, UniProt Q9SJV0 1-340, looked up)
chain: MVLRFCCHLLTYSVSLLPPITMFFDGYHYHGTTFEQSYRCYPASFIDKPQLESGDKIIMPPSALDRLASLHIDYPMLFELRNAGIERVTHCGVLEFIAEEGMIYMPYWMMQNLLLQEGDIVRVRNVTLPKGTYVKLQPHTTDFLDISNPKAILETALRNYSCLTSGDSIMVPYNNKKYFIDIVETKPANAISIIETDCEVDFAPPLDYKEPERPTAPSAAKGPAKAEEVVDEPEPKFNPFTGSGRRLDGRPLAYEPAPASSSKGKQPVVANGNGQSSVASSSEKATRAQGKLVFGANGNRAPKEAAPKVGAAKETKKEEQEKKDEPKFQAFSGKKYSLRG
notes: Ubiquitin fusion degradation protein 1 paralogue B (AtUFD1B), Arabidopsis thaliana, locus AT2g21270; cDNA cloned into pGEX6P-1; also called AtUFD1B; AtUFD1; not shown: GST, N-terminal, cleaved
Kd [1]: > 200 µM

B2: AtNPL4B F105A (natural protein, Arabidopsis thaliana, UniProt Q9LYC2 1-413, looked up)
chain: MTMLRVRSRDGLERVSVDGPHITVSQLKTLIQDQLQIPIHNQTLSTNRNLLLAKSPSDFLAFTDMADPNLRISSLNLAHGSMVYLAYEGERTIRGGPAVTPAGSAGRKMTVEDLIARQMRVGRQEKAHCDSVSFDRDCANAFQHFVNESLAFAVKRGGFMYGNVSEDGQVEVNFIYEPPQQGMEDNLILMRDSEEEKRVDAIALGLGMRRVGFIFNQTVTQDKKEYTLSNVEVLLAAQLHAESELKEWVTAVVKLEINEDGGADVHFEPFQMSDMCVRLFKEGWFETEIGPEDDPKLSKLKKEVVVGVKDVKEVDNDFFLVLVKILDHQGPLSCTFPIENRNTQTTMRALKTHMERARSLPFVKRISDFHLLLFVAQFLDVSSDVPALAECVRLQSHVPEGYELLIDSMANTS
notes: AtNPL4B, second NPL4 variant of Arabidopsis thaliana, locus AT3g63000 (84% identical to AtNPL4); ordered from Twist Biosciences in pGEX6P-1; The wild-type AtNPL4B was not measured; also called the F105 mutant; not shown: GST, N-terminal, cleaved
binding result [2]: binds

B3: AtNPL4B UBXL domain (domain or fragment, Arabidopsis thaliana, UniProt Q9LYC2 1-89, looked up)
chain: MTMLRVRSRDGLERVSVDGPHITVSQLKTLIQDQLQIPIHNQTLSTNRNLLLAKSPSDFLAFTDMADPNLRISSLNLAHGSMVYLAYEG
notes: UBX-like (UBXL) domain of AtNPL4B, Arabidopsis thaliana, locus AT3g63000, residues 1-89; also called the isolated UBXL domain; not shown: GST, N-terminal, cleaved
stoichiometry N [2]: 6 AtNPL4B_(UBXL) per hexamer

Reference: paper doi:10.1101/2025.03.28.645892, “Plant-specific adaptations of the CDC48 unfoldase” (bioRxiv, 2025)
